According to US6699683B1, “Active site of human gamma glutamy hydrolase” (Health Research Incorporated, priority 1996, dated 2004):
Marks after values point to notes of the source that are not given here.

B1: Wildtype: mature human gamma glutamyl hydrolase (SEQ ID NO:1) with N-terminal methionine, expressed in E. coli (protein, listed as Homo sapiens)
chain: RPHGDTAKKPIIGILMQKCRNKVMKNYGRYYIAASYVKYLESAGARVVPVRLDLTEKDYEILFKSINGILFPGGSVDLRRSDYAKVAKIFYNLSIQSFDDGDYFPVWGTCLGFEELSLLISGECLLTATDTVDVAMPLNFTGGQLHSRMFQNFPTELLLSLAVEPLTANFHKWSLSVKNFTMNEKLKKFFNVLTTNTDGKIEFISTMEGYKYPVYGVQWHPEKAPYEWKNLDGISHAPNAVNPAFYLAEFFVNEARKKNHHFKSESEEEKALIYQFSPIYTGNISSFQQCYIFD
modifications: N-terminal methionine
B2: C290A: hGH variant with cysteine 290 replaced by alanine (protein)
chain: RPHGDTAKKPIIGILMQKCRNKVMKNYGRYYIAASYVKYLESAGARVVPVRLDLTEKDYEILFKSINGILFPGGSVDLRRSDYAKVAKIFYNLSIQSFDDGDYFPVWGTCLGFEELSLLISGECLLTATDTVDVAMPLNFTGGQLHSRMFQNFPTELLLSLAVEPLTANFHKWSLSVKNFTMNEKLKKFFNVLTTNTDGKIEFISTMEGYKYPVYGVQWHPEKAPYEWKNLDGISHAPNAVNPAFYLAEFFVNEARKKNHHFKSESEEEKALIYQFSPIYTGNISSFQQAYIFD
B3: H220A: hGH mutant with His 220 changed to Ala, expressed in the baculovirus system (protein)
chain: RPHGDTAKKPIIGILMQKCRNKVMKNYGRYYIAASYVKYLESAGARVVPVRLDLTEKDYEILFKSINGILFPGGSVDLRRSDYAKVAKIFYNLSIQSFDDGDYFPVWGTCLGFEELSLLISGECLLTATDTVDVAMPLNFTGGQLHSRMFQNFPTELLLSLAVEPLTANFHKWSLSVKNFTMNEKLKKFFNVLTTNTDGKIEFISTMEGYKYPVYGVQWAPEKAPYEWKNLDGISHAPNAVNPAFYLAEFFVNEARKKNHHFKSESEEEKALIYQFSPIYTGNISSFQQCYIFD
B4: Glu222Ala: hGH mutant with Glu 222 changed to Ala, expressed in the baculovirus system (protein)
chain: RPHGDTAKKPIIGILMQKCRNKVMKNYGRYYIAASYVKYLESAGARVVPVRLDLTEKDYEILFKSINGILFPGGSVDLRRSDYAKVAKIFYNLSIQSFDDGDYFPVWGTCLGFEELSLLISGECLLTATDTVDVAMPLNFTGGQLHSRMFQNFPTELLLSLAVEPLTANFHKWSLSVKNFTMNEKLKKFFNVLTTNTDGKIEFISTMEGYKYPVYGVQWHPAKAPYEWKNLDGISHAPNAVNPAFYLAEFFVNEARKKNHHFKSESEEEKALIYQFSPIYTGNISSFQQCYIFD
B5: C124A: hGH variant with cysteine 124 replaced by alanine (protein)
chain: RPHGDTAKKPIIGILMQKCRNKVMKNYGRYYIAASYVKYLESAGARVVPVRLDLTEKDYEILFKSINGILFPGGSVDLRRSDYAKVAKIFYNLSIQSFDDGDYFPVWGTCLGFEELSLLISGEALLTATDTVDVAMPLNFTGGQLHSRMFQNFPTELLLSLAVEPLTANFHKWSLSVKNFTMNEKLKKFFNVLTTNTDGKIEFISTMEGYKYPVYGVQWHPEKAPYEWKNLDGISHAPNAVNPAFYLAEFFVNEARKKNHHFKSESEEEKALIYQFSPIYTGNISSFQQCYIFD
B6: His171Asn: hGH mutant with His 171 changed to Asn, expressed in the baculovirus system (protein)
chain: RPHGDTAKKPIIGILMQKCRNKVMKNYGRYYIAASYVKYLESAGARVVPVRLDLTEKDYEILFKSINGILFPGGSVDLRRSDYAKVAKIFYNLSIQSFDDGDYFPVWGTCLGFEELSLLISGECLLTATDTVDVAMPLNFTGGQLHSRMFQNFPTELLLSLAVEPLTANFNKWSLSVKNFTMNEKLKKFFNVLTTNTDGKIEFISTMEGYKYPVYGVQWHPEKAPYEWKNLDGISHAPNAVNPAFYLAEFFVNEARKKNHHFKSESEEEKALIYQFSPIYTGNISSFQQCYIFD
B7: C19A: hGH variant with cysteine 19 replaced by alanine (protein)
chain: RPHGDTAKKPIIGILMQKARNKVMKNYGRYYIAASYVKYLESAGARVVPVRLDLTEKDYEILFKSINGILFPGGSVDLRRSDYAKVAKIFYNLSIQSFDDGDYFPVWGTCLGFEELSLLISGECLLTATDTVDVAMPLNFTGGQLHSRMFQNFPTELLLSLAVEPLTANFHKWSLSVKNFTMNEKLKKFFNVLTTNTDGKIEFISTMEGYKYPVYGVQWHPEKAPYEWKNLDGISHAPNAVNPAFYLAEFFVNEARKKNHHFKSESEEEKALIYQFSPIYTGNISSFQQCYIFD

Legend:
[1] = system: wildtype, C19A, C124A and C290A hGH proteins; conditions: 0.5 mM iodoacetate for 60 minutes
Description: hGH activity in chromatography fractions was measured with 4-NH2-10-CH3PteGlu5 (Schirk Labs, Jona, Switzerland) as previously described (Rhee et al. 1998). The specific activities and reaction kinetics of hGH were determined using varying concentrations of 4-NH2-10-CH3PteGlu2 as substrate (Schirk Labs). Km and Vmax were determined by the method of Hanes (Price and Stevens 1989) with the best fit line calculated using Excel (Microsoft).

[2] = system: human gamma glutamyl hydrolase (hGH); assay: hGH activity assay with 4-NH2-10-CH3PteGlu2 as substrate (Km, Vmax, specific activity) of E. coli-expressed purified proteins; assay type: biochemical; conditions: for Specific activity (nmol 4-NH2-10-CH3PteGlu2 hydrolyzed/min/mg protein): 200 μM 4-NH2-10-CH3PteGlu2 for 5 minutes; for Specific activity (nmol 4-NH2-10-CH3PteGlu2 hydrolyzed/min/mg protein) / Km / Vmax (nmol 4-NH2-10-CH3PteGlu2 hydrolyzed/min/μg protein): mean ± SD of 3 experiments; for hGH activity (in words): purified E. coli-expressed proteins; for Km: substrate 4-NH2-10-CH3PteGlu2, variable concentrations; for Vmax (nmol 4-NH2-10-CH3PteGlu2 hydrolyzed/min/μg protein): variable 4-NH2-10-CH3PteGlu2 concentrations
Description: Mutant plasmids were used to transform E. colistrain BL21(DE3)pLysS to kanamycin resistance. Cultures (20 ml) were grown for 16 hours at 37° C., 225 rpm in tryptone-phosphate broth (Moore et al. 1993), containing 30 μg/ml kanamycin and 34 μg/ml chloramphenicol. An aliquot (6 ml) of this culture was used to inoculate 500 ml of the same medium. Cultures were incubated at 27° C., 225 rpm until the OD600nm was 0.5-0.6. Isopropyl β-D-thiogalactoside (IPTG) was added to a final concentration of 1 mM and cultures were incubated for a further 3 hours. Cells were harvested by centrifugation and stored at −80° C. Cells from 1 liter of broth were resuspended in 50 ml of 50 mM Tris/HCl pH 7.5 buffer containing 500 mM NaCl and Complete protease inhibitor cocktail (Boehringer Mannheim, Indianapolis, Ind.). The mixture was sonicated and clarified by centrifugation at 20,000 g for 30 minutes at 4° C. A 20-60% ammonium sulfate precipitate was resuspended in 50 mM sodium acetate, pH 5.8, 1 mM octyl-β-D-glucoside (OBG) and 5% glycerol (buffer A). After dialysis at 4° C. against buffer A and clarification by centrifugation at 30,000 g, 4° C. for 120 minutes, the dialysate was applied in two aliquots to a Protein Pak SP colummn (1.0 cm×10 cm, Waters Division of Millipore Corp., Milford, Mass.) equilibrated in buffer A. The protein was eluted (1 ml/min) with a linear gradient in buffer A of 0 to 1M NaCl over 60 minutes. Fractions were assayed for hGH activity or for hGH protein by Western blot. Fractions containing hGH were pooled and frozen at −80° C. Wildtype hGH and the C19A, C110A, and C290A mutants eluted as two peaks whereas the C124A mutant eluted as a single peak coincident with the first peak for the other hGH proteins. […] There was 8-10 times more hGH protein in peak 1 than in peak 2. A statistically significant amount (40-82%) of enzyme activity of proteins purified on the SP column was lost when stored either at 4° C. or at −80° C. Thawed aliquots of peak 1 were incubated for 2 hours at 4° C. with 2 ml of pHMB agarose (0.8 μmole/ml agarose) (Sigma Chemical, St. Louis, Mo.) equilibrated in 50 mM sodium acetate pH 5.8, 20 mM OBG, 500 mM NaCl (buffer B). The matrix was poured into a column (0.75 cm×4.5 cm) and washed with buffer B. hGH protein was eluted with buffer B containing additionally 10 mM dithiothreitol and 50 mM β-mercaptoethanol. EDTA (1 mM final) was added to each fraction to inhibit remaining proteases. Fractions containing hGH were pooled and stored at −80° C.
Km and Vmax activities were measured using variable 4-NH2-10-CH3PteGlu2 substrate concentrations. Specific activities were measured using 200 μM 4-NH2-10-CH3PteGlu2 for 5 minutes.

[3] = system: human gamma glutamyl hydrolase (hGH); assay: Activity of baculovirus-expressed hGH mutants on methotrexate polyglutamates; assay type: biochemical; conditions: mutants expressed in the baculovirus system
From the text: This model for the active site of hGH has been tested by preparing the Cys110Ala, His220Ala, Glu222Ala, His171Ala, and His171Asn mutants of hGH. The mutants were expressed in the baculovirus system used for active hGH to facilitate the rapid expression and purification of the proteins. The mutant proteins were characterized for activity on methotrexate polyglutamates. […] The role of His171 in hGH has been examined by preparing the mutant His171Ala and the more conservative mutation His171Asn.

Molecule	Reduction of hGH activity by iodoacetate [1]	Specific activity (nmol 4-NH2-10-CH3PteGlu2 hydrolyzed/min/mg protein) [2]	hGH activity (in words) [2]	Km [2] [µM]	Vmax (nmol 4-NH2-10-CH3PteGlu2 hydrolyzed/min/μg protein) [2]	Activity on methotrexate polyglutamates [3]	Activity on methotrexate tetraglutamate [3]
O=C(O)CI [iodoacetate]	70-94%	–	–	–	–	–	–
B1	–	1913 ± 32 nmol 4-NH2-10-CH3PteGlu2 hydrolyzed/min/mg protein	had activity	55.2 ± 8.4	2.7 ± 0.9 nmol 4-NH2-10-CH3PteGlu2 hydro	–	–
B2	–	1406 ± 463 nmol 4-NH2-10-CH3PteGlu2 hydrolyzed/min/mg protein	had activity	19.5 ± 8.6	1.9 ± 0.4 nmol 4-NH2-10-CH3PteGlu2 hydro	–	–
B3	–	–	–	–	–	inactive	–
B4	–	–	–	–	–	greatly reduced activity	–
B5	–	725 ± 79^a nmol 4-NH2-10-CH3PteGlu2 hydrolyzed/min/mg protein	had activity	28.5 ± 3.7	1.0 ± 0.1 nmol 4-NH2-10-CH3PteGlu2 hydro	–	–
B6	–	–	–	–	–	–	inactive
B7	–	1000 ± 72^a nmol 4-NH2-10-CH3PteGlu2 hydrolyzed/min/mg protein	had activity	18.1 ± 0.4	1.1 ± 0.3 nmol 4-NH2-10-CH3PteGlu2 hydro	–	–
